In the supplement of paper PMC9112550, “Optimization of the antimicrobial peptide Bac7 by deep mutational scanning” (BMC Biology, 2022):

What follows are sequences tested on Escherichia coli TOP10 (assay: shrunken log2 fold change of peptide-encoding DNA abundance (4.5 h post-induction vs induction); higher = less antimicrobial activity (less host growth inhibition)). Details: time post-induction: 4.5 h; library: site-saturation at positions 5, 18, 19, 20.
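Further: peptides expressed intracellularly from a pBAD plasmid library in pooled LB shake-flask culture, induced with 0.3% L-arabinose, DNA abundance read by NGS, three biological replicates, DESeq2 with apeglm shrinkage.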

Sequence | shrunken log2 fold change
RRIRMRPPRLPRPRPRPLEGPRP | 0.109
RRIRKRPPRLPRPRPRPTIEPRP | 0.236
RRIRMRPPRLPRPRPRPQRCPRP | 0.551
RRIRGRPPRLPRPRPRPDKAPRP | -0.00124
RRIRRRPPRLPRPRPRPEKYPRP | 0.135
RRIRIRPPRLPRPRPRPKCQPRP | -0.00871
RRIRCRPPRLPRPRPRPTHGPRP | 0.000601
RRIRKRPPRLPRPRPRPNRLPRP | 0.497
RRIRDRPPRLPRPRPRPYWYPRP | 0.00534
RRIRGRPPRLPRPRPRPQMSPRP | 0.395
RRIRTRPPRLPRPRPRPCIPPRP | -1.3
RRIRQRPPRLPRPRPRPHKCPRP | -0.364
RRIRMRPPRLPRPRPRPIINPRP | -0.0492
RRIRGRPPRLPRPRPRPKCGPRP | 0.814
RRIRTRPPRLPRPRPRPLQDPRP | 0.00698
RRIRRRPPRLPRPRPRPFDFPRP | -0.146
RRIRPRPPRLPRPRPRPPRVPRP | 0.447
RRIRHRPPRLPRPRPRPPSEPRP | -0.0921
RRIRCRPPRLPRPRPRPYHDPRP | -1.05
RRIRCRPPRLPRPRPRPRMKPRP | 0.0252
RRIRTRPPRLPRPRPRPFHIPRP | 0.0392
RRIRPRPPRLPRPRPRPCCLPRP | -0.439
RRIRFRPPRLPRPRPRPYWIPRP | -1.07
RRIRGRPPRLPRPRPRPFELPRP | 0.0951
RRIRMRPPRLPRPRPRPLSLPRP | 0.0457

Sequence | shrunken log2 fold change
RRIRHRPPRLPRPRPRPFNFPRP | -0.648
RRIRQRPPRLPRPRPRPDVIPRP | -0.011
RRIRDRPPRLPRPRPRPDQRPRP | -0.00174
RRIRLRPPRLPRPRPRPCGVPRP | -0.339
RRIRQRPPRLPRPRPRPMMDPRP | -0.137
RRIRHRPPRLPRPRPRPYLHPRP | -0.175
RRIRRRPPRLPRPRPRPQDRPRP | 0.0852
RRIRHRPPRLPRPRPRPKGKPRP | -0.0894
RRIRTRPPRLPRPRPRPAINPRP | 0.0461
RRIRNRPPRLPRPRPRPSKHPRP | -0.545
RRIRERPPRLPRPRPRPQVEPRP | 0.0218
RRIRDRPPRLPRPRPRPKCNPRP | -0.13
RRIRRRPPRLPRPRPRPCTVPRP | -0.0302
RRIRDRPPRLPRPRPRPRGCPRP | 0.786
RRIRHRPPRLPRPRPRPGAIPRP | -0.15
RRIRIRPPRLPRPRPRPQHRPRP | -0.116
RRIRLRPPRLPRPRPRPYQDPRP | -0.106
RRIRWRPPRLPRPRPRPNAQPRP | -0.0306
RRIRARPPRLPRPRPRPSVCPRP | 0.348
RRIRSRPPRLPRPRPRPVPFPRP | -0.237
RRIRLRPPRLPRPRPRPKYFPRP | -0.269
RRIRKRPPRLPRPRPRPEWDPRP | 0.12
RRIRIRPPRLPRPRPRPWYLPRP | -0.166
RRIRERPPRLPRPRPRPVYAPRP | -0.288
RRIRARPPRLPRPRPRPWPRPRP | 0.992

Sequence | shrunken log2 fold change
RRIRTRPPRLPRPRPRPCWIPRP | -0.1
RRIRFRPPRLPRPRPRPLDMPRP | -0.372
RRIRERPPRLPRPRPRPFTLPRP | -0.21
RRIRERPPRLPRPRPRPVAVPRP | -0.0937
RRIRHRPPRLPRPRPRPPIEPRP | -0.809
RRIRYRPPRLPRPRPRPGAHPRP | -0.818
RRIRKRPPRLPRPRPRPFYHPRP | 0.0754
RRIRHRPPRLPRPRPRPWIVPRP | -0.404
RRIRCRPPRLPRPRPRPFGRPRP | -0.207
RRIRFRPPRLPRPRPRPLHEPRP | 0.0931
RRIRRRPPRLPRPRPRPQQDPRP | 0.0793
RRIRERPPRLPRPRPRPNCNPRP | -0.848
RRIRTRPPRLPRPRPRPYEMPRP | -0.482
RRIRFRPPRLPRPRPRPKWLPRP | 0.251
RRIRWRPPRLPRPRPRPYYVPRP | -0.213
RRIRLRPPRLPRPRPRPCSEPRP | 0.0739
RRIRPRPPRLPRPRPRPCDWPRP | 0.0592
RRIRQRPPRLPRPRPRPKTKPRP | -0.254
RRIRHRPPRLPRPRPRPEAKPRP | -0.0228
RRIRIRPPRLPRPRPRPGQEPRP | -0.00674
RRIRFRPPRLPRPRPRPWPWPRP | -0.00192
RRIRFRPPRLPRPRPRPLVPPRP | 0.338
RRIRKRPPRLPRPRPRPPMCPRP | 0.389
RRIRRRPPRLPRPRPRPIQEPRP | 0.0641
RRIRIRPPRLPRPRPRPHGSPRP | -0.261

Sequence | shrunken log2 fold change
RRIRVRPPRLPRPRPRPFLPPRP | -0.198
RRIRKRPPRLPRPRPRPPPIPRP | 0.748
RRIRNRPPRLPRPRPRPLGAPRP | 0.413
RRIRGRPPRLPRPRPRPNFKPRP | 0.142
RRIRCRPPRLPRPRPRPIRKPRP | -0.126
RRIRYRPPRLPRPRPRPVCFPRP | -0.674
RRIRSRPPRLPRPRPRPKMNPRP | -0.163
RRIRERPPRLPRPRPRPFQMPRP | -0.112
RRIRWRPPRLPRPRPRPSKFPRP | -0.0435
RRIRRRPPRLPRPRPRPMTFPRP | 0.164
RRIRCRPPRLPRPRPRPVTNPRP | -0.0299
RRIRQRPPRLPRPRPRPKSGPRP | 0.631
RRIRRRPPRLPRPRPRPHYIPRP | -0.662
RRIRVRPPRLPRPRPRPLTFPRP | -0.271
RRIRVRPPRLPRPRPRPRVAPRP | 0.381
RRIRVRPPRLPRPRPRPNICPRP | 0.27
RRIRKRPPRLPRPRPRPIGEPRP | -0.0126
RRIRDRPPRLPRPRPRPTFYPRP | -0.286
RRIRYRPPRLPRPRPRPSFSPRP | -0.626
RRIRCRPPRLPRPRPRPYKRPRP | -0.909
RRIRIRPPRLPRPRPRPTHLPRP | -0.0268
RRIRERPPRLPRPRPRPQSYPRP | -0.0192
RRIRNRPPRLPRPRPRPVGIPRP | -0.2
RRIRARPPRLPRPRPRPNRKPRP | 0.131
RRIRIRPPRLPRPRPRPECAPRP | -0.0969

Sequence | shrunken log2 fold change
RRIRDRPPRLPRPRPRPRVCPRP | 0.372
RRIRPRPPRLPRPRPRPLRTPRP | 0.831
RRIRLRPPRLPRPRPRPQRQPRP | 0.316
RRIRLRPPRLPRPRPRPRMCPRP | -0.0246
RRIRFRPPRLPRPRPRPMEHPRP | -0.416
RRIRNRPPRLPRPRPRPMLCPRP | 0.0164
RRIRFRPPRLPRPRPRPAAAPRP | 0.551
RRIRDRPPRLPRPRPRPKRSPRP | -0.0252
RRIRTRPPRLPRPRPRPATLPRP | -0.197
RRIRKRPPRLPRPRPRPVMEPRP | 0.581
RRIRYRPPRLPRPRPRPWEAPRP | -0.271
RRIRNRPPRLPRPRPRPKKIPRP | -0.187
RRIRNRPPRLPRPRPRPLECPRP | -0.311
RRIRNRPPRLPRPRPRPKYGPRP | -0.174
RRIRARPPRLPRPRPRPNYWPRP | 0.0678
RRIRMRPPRLPRPRPRPHYNPRP | -0.467
RRIRDRPPRLPRPRPRPGIYPRP | -0.15
RRIRWRPPRLPRPRPRPVHHPRP | -0.0507
RRIRTRPPRLPRPRPRPKMLPRP | -0.204
RRIRLRPPRLPRPRPRPCDDPRP | -0.189
RRIRWRPPRLPRPRPRPAAPPRP | 0.613
RRIRTRPPRLPRPRPRPGEWPRP | 0.0179
RRIRTRPPRLPRPRPRPLKHPRP | -0.315
RRIRCRPPRLPRPRPRPQRLPRP | 0.44
RRIRLRPPRLPRPRPRPQHKPRP | -0.0846

Sequence | shrunken log2 fold change
RRIRNRPPRLPRPRPRPCLDPRP | -0.0122
RRIRGRPPRLPRPRPRPSQCPRP | -0.165
RRIRCRPPRLPRPRPRPPPVPRP | 1.24
RRIRHRPPRLPRPRPRPQRIPRP | -0.00331
RRIRIRPPRLPRPRPRPFIEPRP | -0.848
RRIRVRPPRLPRPRPRPAYYPRP | -0.616
RRIRKRPPRLPRPRPRPWRKPRP | 0.0487
RRIRLRPPRLPRPRPRPPCAPRP | 0.457
RRIRQRPPRLPRPRPRPMLVPRP | 0.142
RRIRFRPPRLPRPRPRPSFTPRP | 0.587
RRIRSRPPRLPRPRPRPVWEPRP | 0.118
RRIRLRPPRLPRPRPRPRMSPRP | -1
RRIRERPPRLPRPRPRPCPYPRP | -0.367
RRIRRRPPRLPRPRPRPGCEPRP | 0.354
RRIRCRPPRLPRPRPRPTTQPRP | 0.0242
RRIRCRPPRLPRPRPRPWAAPRP | -0.0941
RRIRCRPPRLPRPRPRPFWMPRP | -0.176
RRIRTRPPRLPRPRPRPQTTPRP | 0.0779
RRIRVRPPRLPRPRPRPWRDPRP | 0.202
RRIRYRPPRLPRPRPRPAQCPRP | -0.0254
RRIRDRPPRLPRPRPRPFHVPRP | -0.0179
RRIRGRPPRLPRPRPRPLDDPRP | 1.09
RRIRLRPPRLPRPRPRPHPVPRP | 0.0604
RRIRDRPPRLPRPRPRPDQHPRP | 0.132
RRIRIRPPRLPRPRPRPWVWPRP | 0.414
